According to patent US20250361312A1:
Read-outs that look alike come from different tables or passages of the source.

What was measured:
[1] = target: human OX40 receptor, cell-expressed (DO11.10-hOX40) (human) (UniProt P43489); assay: cell-based or functional assay
[2] = target: human OX40 receptor, cell-expressed (DO11.10-hOX40) (human) (UniProt P43489); assay: cell-based or functional assay; remark: listed apart in the source
[3] = target: human OX40 receptor, cell-expressed (DO11.10-hOX40) (human) (UniProt P43489); assay: cell-based or functional assay; remark: listed apart in the source
[4] = target: human OX40 receptor, cell-expressed (DO11.10-hOX40) (human) (UniProt P43489); assay: cell-based or functional assay; remark: listed apart in the source
[5] = target: cynomolgus OX40 receptor, cell-expressed (DO11.10-cOX40) (cynomolgus); assay: flow cytometry on DO11.10-cOX40 cells
Sequence of cynomolgus OX40 receptor, cell-expressed (DO11.10-cOX40) (cynomolgus) (P43489 other isoform, or with tags, fused parts or gaps): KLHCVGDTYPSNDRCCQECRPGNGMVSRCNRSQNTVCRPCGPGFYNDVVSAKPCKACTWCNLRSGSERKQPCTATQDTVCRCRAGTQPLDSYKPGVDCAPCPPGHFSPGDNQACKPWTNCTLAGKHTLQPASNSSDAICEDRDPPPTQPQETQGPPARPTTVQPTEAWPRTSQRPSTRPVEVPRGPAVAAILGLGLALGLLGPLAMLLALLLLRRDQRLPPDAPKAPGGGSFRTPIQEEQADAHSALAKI

[6] = target: human OX40 receptor, cell-expressed (DO11.10-hOX40) (human) (UniProt P43489); assay: flow cytometry on DO11.10-hOX40 cells

Sequence of human OX40 receptor, cell-expressed (DO11.10-hOX40) (human) (P43489 29-277): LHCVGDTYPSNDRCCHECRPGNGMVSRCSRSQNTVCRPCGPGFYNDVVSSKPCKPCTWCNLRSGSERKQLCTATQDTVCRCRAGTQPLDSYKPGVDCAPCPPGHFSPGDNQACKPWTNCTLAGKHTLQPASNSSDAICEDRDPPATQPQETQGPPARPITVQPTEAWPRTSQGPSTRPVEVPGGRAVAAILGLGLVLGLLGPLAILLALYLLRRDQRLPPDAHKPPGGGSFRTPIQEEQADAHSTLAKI

Substance	EC50 of IL-2 release, Xlink (anti-hCH2) [1] [pM]	Max response, Xlink (anti-hCH2) [1] [mIL-2 pg/ml]	EC50 of IL-2 release, HPAC cells present, Xlink (anti-hCH2) [2] [pM]	EC50 of IL-2 release, Xlink (anti-hCH2) [2] [pM]	Max response, HPAC cells present, Xlink (anti-hCH2) [2] [mIL-2 pg/ml]	Max response, Xlink (anti-hCH2) [2] [mIL-2 pg/ml]	EC50 of IL-2 release, Xlink (anti-hCH2) [3] [pM]	Max response, Xlink (anti-hCH2) [3] [mIL-2 pg/ml]	EC50 of IL-2 release, Xlink (anti-hCH2) [4] [pM]	Max response, Xlink (anti-hCH2) [4] [mIL-2 pg/ml]	EC50 of IL-2 release, crosslinked (anti-human CH2 mAb) [2] [pM]	Max response, crosslinked [2] [hIL-2 pg/ml]	EC50 [5] [pM]	EC50 [6] [pM]
G1/11D4 (antibody)	140	24500	228	199	14800	21900	0.153	25000	196	7200				
G1AA/11D4 (antibody)											49.3	26700	213	814
